These results are taken from paper doi:10.1101/2022.04.02.486822v1.

Holding throughout (assay): purified protein
Settings in all cases: 200 µM NADPH, 50 mM HEPES, pH 7.5, 22 °C

Substrate in data set [1]: O=CC(=O)O
Format: biochemical, Escherichia coli.

Substrate in data set [2]: N=C(N)NCCCC(=O)C(=O)O
Substrate in data set [3]: O=C(O)CC(=O)C(=O)O
Substrate in data set [4]: O=C(O)CCC(=O)C(=O)O
Substrate in data set [5]: O=CC(=O)O

B1: EcGhrA (Escherichia coli K-12; W45F) (protein)
chain: MDIIFYHPTFDTQWWIEALRKAIPQARVRAWKSGDNDSADYALVFHPPVEMLAGRDLKAVFALGAGVDSILSKLQAHPEMLNPSVPLFRLEDTGMGEQMQEYAVSQVLHWFRRFDDYRIQQNSSHWQPLPEYHREDFTIGILGAGVLGSKVAQSLQTWRFPLRCWSRTRKSWPGVQSFAGREELSAFLSQCRVLINLLPNTPETVGIINQQLLEKLPDGAYLLNLARGVHVVEDDLLAALDSGKVKGAMLDVFNREPLPPESPLWQHPRVTITPHVAAITRPAEAVEYISRTIAQLEKGERVCGQVDRARGY
Take B1: the Km (commonly the concentration of substrate that gives half-maximal velocity) in data set [1] came to 10.8 ± 6.1 mM; in data set [2], 43.2 ± 8.4 mM; in data set [3], 6.3 ± 0.2 mM; in data set [4], 11.5 ± 0.8 mM. The kcat – broadly, the number of substrate molecules converted per active site and unit of time at saturation – amounted to 120.0 ± 63.0 s⁻¹ in data set [1], 4.0 ± 0.7 s⁻¹ in data set [2], 1.8 ± 0.04 s⁻¹ in data set [3] and 0.26 ± 0.01 s⁻¹ in data set [4].

B2: EcGhrA (Escherichia coli K-12) (protein)
chain: MDIIFYHPTFDTQWWIEALRKAIPQARVRAWKSGDNDSADYALVWHPPVEMLAGRDLKAVFALGAGVDSILSKLQAHPEMLNPSVPLFRLEDTGMGEQMQEYAVSQVLHWFRRFDDYRIQQNSSHWQPLPEYHREDFTIGILGAGVLGSKVAQSLQTWRFPLRCWSRTRKSWPGVQSFAGREELSAFLSQCRVLINLLPNTPETVGIINQQLLEKLPDGAYLLNLARGVHVVEDDLLAALDSGKVKGAMLDVFNREPLPPESPLWQHPRVTITPHVAAITRPAEAVEYISRTIAQLEKGERVCGQVDRARGY
Regarding B2, the Km in data set [2] came out at 8.8 ± 0.8 mM; in data set [3], 1.3 ± 0.2 mM; in data set [4] it was 4.0 ± 0.4 mM; in data set [5] it was 2.2 ± 1.7 mM. Also, the turnover number (kcat) was 6.6 ± 0.4 s⁻¹ in data set [2], 1.9 ± 0.1 s⁻¹ in data set [3], 0.30 ± 0.02 s⁻¹ in data set [4] and 40.0 ± 23.0 s⁻¹ in data set [5].
